Source: US6391584B1, “Expression-cloning method for identifying target proteins for eukaryotic tyrosine kinases and novel target proteins” (New York University Medical Center, priority 1991, dated 2002)

Molecular target: T1, EGFR (Homo sapiens, UniProt P00533)
T1 construct: Full length EGFR was immunoprecipitated with Mab108, and allowed to autophosphorylate; expressed in transfected cells; host or cells: NIH-3T3 cells transfected with wild-type EGFR (HER14)
Assay: Binding of PLC-γ to immunoprecipitated, autophosphorylated full length EGFR; fraction remaining bound after washes
Settings: Mean+/−SEM, n=4; anti PLC-γ blot with (125I)Protein A, bands quantitated in a γ counter
Procedure: FIG. 11 is a gel pattern showing that phosphorylation of PLC-γ reduces its binding to the EGF receptor. Full length EGFR was immunoprecipitated with Mab108, and allowed to autophosphorylate. Lysate from PLC-γ overexpressing 3T-P1 cells was added and mixed for 90 min at 4° C. After binding, ATP was added to one half of the samples allowing the PLC-γ molecules to be phosphorylated by the EGF receptor. SDS-PAGE sample buffer-was then added to one half of the EGFR-PLC-γ complexes (NO WASH, left panel) and directly loaded onto the 6% gel. The other half was washed three times with HNTG and then loaded on the gel (WASH, right panel. After running duplicate samples on SDS-PAGE, the proteins were transferred to nitrocellulose and probed with anti PLC-γ and (^125I)Protein A. The bands were subsequently cut from the nitrocellulose and quantitated in a γ counter. After three washes with HNTG, 50+/−5% (Mean+/−SEM, n=4) of the non-phosphorylated PLC-γ remained bound to the EGFR while only 22+/−4% of the phosphorylated PLC-γ remained (exposure time: 12 h).
The techniques used are described in several references from the present inventors, laboratory (Margolis, B. L. et al., J. Biol. Chem. 264: 10667-10671 (1989); Cell 57:1101-1107 (1989)). […]

B1: phosphorylated PLC-γ: PLC-γ from 3T-P1 cell lysate phosphorylated by the EGF receptor after addition of ATP (protein, UniProt Q62077 2-1302, looked up)
1-phosphatidylinositol …: AGVATPCANGCGPGAPSEAEVLHLCRSLEVGTVMTLFYSKKSQRPERKTFQVKLETRQITWSRGADKIEGSIDIREIKEIRPGKTSRDFDRYQEDPAFRPDQSHCFVILYGMEFRLKTLSLQATSEDEVNMWIKGLTWLMEDTLQAATPLQIERWLRKQFYSVDRNREDRISAKDLKNMLSQVNYRVPNMRFLRERLTDLEQRSGDITYGQFAQLYRSLMYSAQKTMDLPFLETNALRTGERPEHCQVSLSEFQQFLLEYQGELWAVDRLQVQEFMLSFLRDPLREIEEPYFFLDELVTFLFSKENSVWNSQLDAVCPDTMNNPLSHYWISSSHNTYLTGDQFSSESSLEAYARCLRMGCRCIELDCWDGPDGMPVIYHGHTLTTKIKFSDVLHTIKEHAFVASEYPVILSIEDHCSIAQQRNMAQHFRKVLGDTLLTKPVDIAADGLPSPNQLRRKILIKHKKLAEGSAYEEVPTSVMYSENDISNSIKNGILYLEDPVNHEWYPHYFVLTSSKIYYSEETSSDQGNEDEEEPKEASSSTELHSSEKWFHGKLGAGRDGRHIAERLLTEYCIETGAPDGSFLVRESETFVGDYTLSFWRNGKVQHCRIHSRQDAGTPKFFLTDNLVFDSLYDLITHYQQVPLRCNEFEMRLSEPVPQTNAHESKEWYHASLTRAQAEHMLMRVPRDGAFLVRKRNEPNSYAISFRAEGKIKHCRVQQEGQTVMLGNSEFDSLVDLISYYEKHPLYRKMKLRYPINEEALEKIGTAEPDYGALYEGRNPGFYVEANPMPTFKCAVKALFDYKAQREDELTFTKSAIIQNVEKQDGGWWRGDYGGKKQLWFPSNYVEEMINPAVLEPEREHLDENSPLGDLLRGVLDVPACQIAIRPEGKNNRLFVFSISMPSVAQWSLDVAADSQEELQDWVKKIREVAQTADARLTEGKMMERRKKIALELSELVVYCRPVPFDEEKIGTERACYRDMSSFPETKAEKYVNKAKGKKFLQYNRLQLSRIYPKGQRLDSSNYDPLPMWICGSQLVALNFQTPDKPMQMNQALFMAGGHCGYVLQPSTMRDEAFDPFDKSSLRGLEPCVICIEVLGARHLPKNGRGIVCPFVEIEVAGAEYDSTKQKTEFVVDNGLNPVWPAKPFHFQISNPEFAFLRFVVYEEDMFSDQNFLAQATFPVKGLKTGYRAVPLKNNYSEDLELASLLIKIDIFPAKENGDLSPFSGISLRERASDASSQLFHVRAREGSFEARYQQPFEDFRISQEHLADHFDSRERSTSDGPSSATNLIEDPLHDKLWKCSL
modifications: tyrosine phosphorylated by EGF receptor
notes: PLC-γ from 3T-P1 cell lysate phosphorylated by the EGF receptor after addition of ATP
  PLC-γ remaining bound to the EGFR after three washes with HNTG: 22+/−4%
